Patent US20230038638A1, “COMPLEMENT FACTOR I-RELATED COMPOSITIONS AND METHODS” (published 2023)

Assays:
[1] = target: soluble human C3b (human) (UniProt P01024)
human C4b (human) = target: T1, human C4b (human) (UniProt P0C0L4)
T1 sequence: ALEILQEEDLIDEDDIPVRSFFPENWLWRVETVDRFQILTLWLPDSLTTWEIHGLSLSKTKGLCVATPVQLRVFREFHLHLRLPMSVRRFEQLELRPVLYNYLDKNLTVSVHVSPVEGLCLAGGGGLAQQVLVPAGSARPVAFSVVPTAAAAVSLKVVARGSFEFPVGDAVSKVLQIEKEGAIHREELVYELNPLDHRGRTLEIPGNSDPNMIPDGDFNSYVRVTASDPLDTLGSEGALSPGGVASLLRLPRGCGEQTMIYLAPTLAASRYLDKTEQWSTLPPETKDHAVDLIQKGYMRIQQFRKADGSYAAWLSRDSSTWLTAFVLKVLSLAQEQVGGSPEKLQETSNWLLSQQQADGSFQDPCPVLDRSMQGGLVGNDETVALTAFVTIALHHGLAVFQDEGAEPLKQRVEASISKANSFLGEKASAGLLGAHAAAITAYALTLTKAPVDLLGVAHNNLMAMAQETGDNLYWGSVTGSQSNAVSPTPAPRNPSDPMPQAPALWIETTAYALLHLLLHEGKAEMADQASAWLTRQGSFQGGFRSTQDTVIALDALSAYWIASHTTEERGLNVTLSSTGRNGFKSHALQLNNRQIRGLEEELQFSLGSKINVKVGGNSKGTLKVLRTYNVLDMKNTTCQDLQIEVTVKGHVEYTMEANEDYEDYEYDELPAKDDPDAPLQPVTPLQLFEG

Row | iC3b Screen Ref Fold (fold of CFI-HSA wild type) [1] | C4b Screen Ref Fold (fold of CFI-HSA wild type) (human C4b (human)) | iC3b Screen Ref Fold (fold of reference) [1] | C4b Screen Ref Fold (fold of reference) (human C4b (human)) | Substance
1 | 0.72 | 2.29 | – | – | CFI-HSA K534D (enzyme)
2 | 0.18 | 3.17 | – | – | CFI-HSA variant G406A; D425K; E457G; E461Q; N531G (enzyme)
3 | 1.17 | 6.13 | – | – | CFI-HSA N531G; R462K (enzyme)
4 | -0.03 | 0.08 | – | – | CFI-HSA variant W375G (enzyme)
5 | 0.74 | 0.12 | – | – | CFI-HSA T407G; Y408L; E457G (enzyme)
6 | – | – | 0.95 | 0.54 | CFI-HSA variant T346R (enzyme)
7 | 1.19 | 5.72 | – | – | CFI-HSA Y408L; N531G; R462K; F464Y (enzyme)
8 | – | – | 0.32 | -0.05 | CFI-HSA variant Y408S (enzyme)
9 | -0.03 | 0.35 | – | – | CFI-HSA D506F (enzyme)
10 | 1.55 | 6.67 | – | – | CFI-HSA N531G; E457G; E461Q; R462K (enzyme)
11 | -0.03 | -0.07 | – | – | CFI-HSA variant N531G; S507A (enzyme)
12 | 0.53 | 0.27 | – | – | CFI-HSA P535L (enzyme)
13 | -0.03 | 0 | – | – | CFI-HSA variant I389G (enzyme)
14 | 0.77 | 1.44 | – | – | CFI-HSA K534T (enzyme)
15 | 0.87 | 3.12 | – | – | CFI-HSA K534L (enzyme)
16 | 1.92 | 1.77 | – | – | CFI-HSA variant Y408F; N531M (enzyme)
17 | -0.02 | 0.26 | – | – | CFI-HSA N531G; P535A; S507A (enzyme)
18 | – | – | 0.24 | 0.36 | CFI-HSA variant N531I (enzyme)
19 | 1.11 | 4.33 | – | – | CFI-HSA E457G; R462K (enzyme)
20 | 0.42 | 3.51 | – | – | CFI-HSA variant R557A; N531D; Y403F; K504Y; E457G; E461Q (enzyme)
21 | – | – | 0.13 | 0.95 | CFI-HSA variant G406D; P535A (enzyme)
22 | 0.89 | 5.5 | – | – | CFI-HSA Y408L; E457G; R462K; F464Y (enzyme)
23 | – | – | 0 | 0.42 | CFI-HSA fusion WT; GGSSGG (SEQ ID NO: 6); fH(ccp1); CR1(ccp16); CR1(ccp17); fH(ccp4) (from UniProt P17927) (enzyme)
24 | 0.46 | 3.17 | – | – | CFI-HSA variant R557A; N531M; Y403F; K504Y; E457G; E461V (enzyme)
25 | 1.31 | 1.14 | – | – | CFI-HSA K534A (enzyme)
26 | – | – | 0.4 | -0.02 | CFI-HSA variant T346K; K504D; E530K (enzyme)

Continued, substance first:

Row | Substance | iC3b Screen Ref Fold (fold of CFI-HSA wild type) [1] | C4b Screen Ref Fold (fold of CFI-HSA wild type) (human C4b (human)) | iC3b Screen Ref Fold (fold of reference) [1] | C4b Screen Ref Fold (fold of reference) (human C4b (human))
27 | CFI-HSA D506I (enzyme) | -0.02 | 0.16 | – | –
28 | CFI-HSA variant W381G; V390G (enzyme) | – | – | -0.01 | 0.04
29 | CFI-HSA Y408L; E461Q; R462K (enzyme) | 1.33 | 2.53 | – | –
30 | CFI-HSA variant Y408M; P558S (enzyme) | 1.13 | 0.06 | – | –
31 | CFI-HSA variant G406D; Y408L; P535A (enzyme) | – | – | 0.23 | 0.38
32 | CFI-HSA Y408L; N531G; E457G; F464Y (enzyme) | 0.84 | 6.45 | – | –
33 | CFI-HSA variant T346K (enzyme) | – | – | 0.96 | 0.57
34 | CFI-HSA variant I322T (enzyme) | – | – | 0.01 | 0.03
35 | CFI-HSA N531G; E461Q; R462K (enzyme) | 2.21 | 6.42 | – | –
36 | CFI-HSA P535S (enzyme) | 0.58 | 2.14 | – | –
37 | CFI-HSA N531G; F464Y (enzyme) | 1.47 | 6.48 | – | –
38 | CFI-HSA Y408L; N531G; E457G; R462K (enzyme) | 1.29 | 6.12 | – | –
39 | CFI-HSA variant N476Q; N518Q (enzyme) | 1.28 | 0.15 | – | –
40 | CFI-HSA variant N531P (enzyme) | – | – | -0.01 | 0.08
41 | CFI-HSA variant P558S; S507A (enzyme) | -0.04 | 0.08 | – | –
42 | CFI-HSA variant G469L; R456N; E457T; K458A (enzyme) | – | – | 0 | -0.07
43 | CFI-HSA variant K312A; R314A (enzyme) | – | – | 0.48 | 0.58
44 | CFI-HSA variant E530Y; P558S (enzyme) | 1.62 | 0.43 | – | –
45 | CFI-HSA D425W (enzyme) | 1.59 | 0.89 | – | –
46 | CFI-HSA-FH_CCP1-4 fusion, Y408L; N531G; GGSSGG (SEQ ID NO: 6); CCP_1-4 (enzyme) | – | – | 0.05 | 1.4

Row | Substance | iC3b Screen Ref Fold (fold of CFI-HSA wild type) [1] | C4b Screen Ref Fold (fold of CFI-HSA wild type) (human C4b (human)) | iC3b Screen Ref Fold (fold of reference) [1] | C4b Screen Ref Fold (fold of reference) (human C4b (human))
47 | CFI-HSA variant T377G; N422K; D425K; E457G; E461Q; E530F; N531G (enzyme) | 0.87 | 3.74 | – | –
48 | CFI-HSA variant D425K; E530F; F537K; K504R (enzyme) | 0.13 | 0.02 | – | –
49 | CFI-HSA variant K504R; S507A (enzyme) | -0.02 | 0.18 | – | –
50 | CFI-HSA Y408L; N531G (enzyme) | 1.29 | 6.44 | – | –
51 | CFI-HSA variant N531H (enzyme) | – | – | 0.74 | 1.16
52 | CFI-HSA variant E461Y (enzyme) | – | – | 0.99 | 2.38
53 | CFI-HSA K534M (enzyme) | 0.95 | 3.89 | – | –
54 | CFI-HSA variant R557A; N531M; Y403F; K504Y; E457G; E461T (enzyme) | 0.4 | 3.31 | – | –
55 | CFI-HSA variant D425K; F537K (enzyme) | 2.11 | 0.22 | – | –
56 | CFI-HSA variant E530F; S507A (enzyme) | -0.04 | 0.13 | – | –
57 | CFI-HSA variant W381A; P384A (enzyme) | – | – | -0.03 | -0.05
58 | CFI-HSA N531G; R462K; F464Y (enzyme) | 0.78 | 6.27 | – | –
59 | CFI-HSA variant E461N (enzyme) | – | – | 1.15 | 2.52
60 | CFI-HSA variant E530F; K504R (enzyme) | 1.14 | 0.05 | – | –
61 | CFI-HSA D425V (enzyme) | 0.98 | 2.51 | – | –
62 | CFI-HSA E457G; Y408L (enzyme) | 1.39 | 4.83 | – | –
63 | CFI-HSA Y408L; S507A; N531G (enzyme) | -0.01 | 0.12 | – | –
64 | CFI-HSA K534H (enzyme) | 1.79 | 1.9 | – | –
65 | CFI-HSA variant R557A; N531M; Y403F; K504Y; E457G; E461L (enzyme) | 0.46 | 3.18 | – | –
